The subject of one data set is F1*sub RNA substrate (template-directed ligation). Description: fraction ligated after 30 min (ligated reads / total reads); higher = more ligase activity. To be noted: 42 °C. The procedure: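 Chip-synthesised pool of F1* ligase ribozyme variants (all single and double substitutions, single, double and triple deletions in the catalytic core and GAA bulge, plus designed variants) was transcribed with T7 and reacted as a pool with excess substrate F1*sub for 30 min at 42 C in 50 mM EPPS pH 8.5, 25 mM MgCl2. Ligated and unligated bands were separated by PAGE, barcoded by RT and deep sequenced; fraction ligated = ligated reads / total reads per variant, relative activity = FL / FL of wild type (0.826). Sequences are the DNA template of the ribozyme.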
“GAGACCGCAACTGAAAAGTTGTTATCACTTGTGTAAGACACTTTGGATGGGTTGGTTCTGCACGTAGAAGCAAAAGGC [3d1809]” had a fraction ligated of 0.0204. The same measure, in the same setting: with “GAGACCGCAACTGAAAAGTTGTTATCACTTGTCGTAAGACACTTTGGAGGGTTGGTTCTGCACGTAGAAGCAAAAGGC [3d2280]” the figure was 0.0051.

The sequence “GAGACCGCAACTGAAAAGTTGTTATACTTGTCGTAAGACACTTTGGATGGGTTGGTTCTGCACGTAGAAGCAAAAGGC [3d948]” had a fraction ligated of 0.

“GAGACCGCAACTGAAAAGTTGTTATCACTTGTCGTAAGACACTTTGGTGGGTTGGTTCTGCACGTAGAAGCAAAAGGC [3d2276]” came in with a fraction ligated of 0.00831. Still for that read-out and setting: as for “GAGACCGCAACTGAAAAGTTGTTATCACTTGTCGTAAGAACTTTGGATGGGTTGGTTCTGCACGTAGAAGCAAAAGGC [3d2182]”, the figure is 0.0451; as for “GAGACCGCAACTGAAAAGTTGTTATCCTTGTCGTAAGACACTTTGGATGGGTTGGTTCTGCACGTAGAAGCAAAAGGC [3d1120]”, 0.00301; as for “GAGACCGCAACTGAAAAGTTGTATCACTTGTCGTAAGACACTTTGGATGGGTTGGTTCTGCACGTAGAAGCAAAAGGC [3d276]”, 0.00404. In the case of “GAGACCGCAACTGAAAAGTTGTTATCACTTGTCGTAAGACACTTTGATGGGTTGGTTCTGCACGTAGAAGCAAAAGGC [3d2270]”, the fraction ligated is 0.00433. Sequence “GAGACCGCAACTGAAAAGTTGTTATCACTTGTCGTAAGACATTTGGATGGGTTGGTTCTGCACGTAGAAGCAAAAGGC [3d2230]” came in with a fraction ligated of 0.00375.

For “GAGACCGCAACTGAAAAGTTGTTATCACTTGTCGTAAGACACTTGGATGGGTTGGTTCTGCACGTAGAAGCAAAAGGC [3d2254]”, the fraction ligated was determined as 0.00633. Same read-out and setting: as for “GAGACCGCAACTGAAAAGTTGTTACACTTGTCGTAAGACACTTTGGATGGGTTGGTTCTGCACGTAGAAGCAAAAGGC [3d737]”, the figure is 0.00325; as for “GAGACCGCAACTGAAAAGTTGTTATCACTTGTCGTAAACACTTTGGATGGGTTGGTTCTGCACGTAGAAGCAAAAGGC [3d2104]”, 0.0572; as for “GAGACCGCAACTGAAAAGTTGTTATCACTTGTCGTAAGACACTTTGGATGGGTTCGTTCTGCACGTAGAAGCAAAAGGC [s80]”, 0.0169. The same measure, in the same setting: with “GAGACCGCAACTGAAAAGTTGTTATCACTTTCGTAAGACACTTTGGATGGGTTGGTTCTGCACGTAGAAGCAAAAGGC [3d1584]” the figure was 0.0193. The sequence “GAGACCGCAACTGAAAAGTTGTTATCACTTGTCGTAAGACACTTTGGATGGGTTGTTCTGCACGTAGAAGCAAAAGGC [3d2283]” showed a fraction ligated of 0.021. Turning to “GAGACCGCAACTGAAAAGTTGTTATCACTTGCGTAAGACACTTTGGATGGGTTGGTTCTGCACGTAGAAGCAAAAGGC [3d1704]”, the fraction ligated worked out at 0.0839. The same measure, in the same setting: with “GAGACCGCAACTGAAAAGTTGTTATCACTTGTCGTAGACACTTTGGATGGGTTGGTTCTGCACGTAGAAGCAAAAGGC [3d2058]” the figure was 0.0726; with “GAGACCGCAACTGAAAAGTTGTTTCACTTGTCGTAAGACACTTTGGATGGGTTGGTTCTGCACGTAGAAGCAAAAGGC [3d507]”, 0.00164; with “GAGACCGCAACTGAAAAGTTGTTATCATTGTCGTAAGACACTTTGGATGGGTTGGTTCTGCACGTAGAAGCAAAAGGC [3d1292]”, 0.00677.

For “GAGACCGCAACTGAAAAGTTGTTATCACTTGTCGAAGACACTTTGGATGGGTTGGTTCTGCACGTAGAAGCAAAAGGC [3d1980]”, the fraction ligated was 0.102. Same read-out and setting: with “GAGACCGCAACTGAAAAGTTGTTATCACTTGTCGTAAGACCTTTGGATGGGTTGGTTCTGCACGTAGAAGCAAAAGGC [3d2206]” the figure was 0.0611; with “GAGACCGCAACTGAAAAGTTGTTATCACTTGTCGTAAGACACTTTGGATGGGTTTGTTCTGCACGTAGAAGCAAAAGGC [s81]”, 0.0148.

Sequence “GAGACCGCAACTGAAAAGTTGTTATCACTTGTCGTAAGACACTTTGGATGGTTGGTTCTGCACGTAGAAGCAAAAGGC [3d2282]” returned a fraction ligated of 0.0129. As for “GAGACCGCAACTGAAAAGTTGTTATCACTGTCGTAAGACACTTTGGATGGGTTGGTTCTGCACGTAGAAGCAAAAGGC [3d1463]”, the fraction ligated is 0.0111. On the same count and under the same terms, as for “GAGACCGCAACTGAAAAGTTGTTATCACTTGTCGTAAGCACTTTGGATGGGTTGGTTCTGCACGTAGAAGCAAAAGGC [3d2151]”, the figure is 0.116; as for “GAGACCGCAACTGAAAAGTTGTTATCACTTGTCTAAGACACTTTGGATGGGTTGGTTCTGCACGTAGAAGCAAAAGGC [3d1901]”, 0.0966; as for “GAGACCGCAACTGAAAAGTTGTTATCACTTGTCGTAAGACACTTTGGATGGGTTGGTTCTGCACGTAGAAGCAAAAGGC [2d299]”, 0.02.

Another data set deals with F1*subA RNA substrate (template-directed ligation). Description: fraction ligated after 30 min (ligated reads / total reads); higher = more ligase activity; sequences stand for … in GAGACCGCAACTGAAAAGTTGT…TTTCTGCACGTAGAAGCAAAAGGC
To be noted: 42 °C, parent ribozyme: minF1. The procedure: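 Chip-synthesised pool of minF1 ligase ribozyme variants (single and double substitutions, single to quadruple deletions, bulge and P2 designed variants) was transcribed with T7 and reacted as a pool with excess substrate F1*subA for 30 min at 42 C in 50 mM EPPS pH 8.5, 25 mM MgCl2. Ligated and unligated RNAs were separated by PAGE, barcoded by RT and deep sequenced; fraction ligated = ligated reads / total reads, relative activity = FL / FL of wild-type minF1 (0.76); sequencing FL correlated with PAGE (R2 = 0.98). Sequences are the DNA template of the ribozyme.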
Consider TATCAGAAAGGATGGGTT [4d1070], for which the fraction ligated was found to be 0.00116. Still for that read-out and setting: as for TATCAGAAATGGATGGGTT [s45 (=3d379)], the figure is 0.00181. TATCAGAAATGGATGGTTG [3d378]: the fraction ligated worked out at 0.00121. In the case of TATCAGAAATGATGGGTT [4d1093], the fraction ligated is 0. Regarding TATCAGAATGGATGGTTG [4d1041], the fraction ligated was 0.00128. Same read-out and setting: as for TATCAGAAATGGATGGTTA [3d377], the figure is 0.00122.

As for TATCAGAAATGATGGTTG [4d1092], the fraction ligated is 0.00043. As for TATCAGAAATGGAGGGTTG [3d376], the fraction ligated came to 0.00056. The same measure, in the same setting: with TATCAGAAATGGATGGGTT [3d379] the figure was 0.00181; with TATCAGAAATGGTGGGTTG [3d372], 0.000922; with TATCAGAAATGATGGGTTG [3d366], 0.000941.

In the case of ATCAGAAATGGATGGGTT [4d310], the fraction ligated turned out to be 0.0014.

Take TATCAGAAAGGATGGTTG [4d1069]: the fraction ligated was determined as 0.000981. Same read-out and setting: as for ATCAGAAATGGATGGTTG [4d309], the figure is 0.000441; as for TATCAGAATGGATGGGTT [4d1042], 0.00126.

The next data set relates to F1*sub RNA substrate (template-directed ligation). Description: fraction ligated after 30 min (ligated reads / total reads); higher = more ligase activity; sequences stand for … in GAGACCGCAACTGAAAAGTTGT…AGTTCTGCACGTAGAAGCAAAAGGC
Conditions: 42 °C. An outline of the steps:
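The ligase ribozyme variants were produced by PCR amplification of oligo-pool templates, T7 transcription and purification on gel. Their ligated and unligated forms were gel-separated, then reverse transcribed with barcoded primers before MiSeq sequencing. Core bases were filtered at a quality of ≥20, and fraction ligated per variant was ligated reads over total reads.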
As for ATCACTTGTCGAAGACACTTTGGTGGGTTGA [3d193], the fraction ligated amounted to 0.0564. Same read-out and setting: with TATACTTGTCGAAGACACTTTGGATGGGTTG [3d869] the figure was 0.61; with TTCACTTGCGTAAGACACTTTGGATGGTTGA [3d384], 0.17; with “TATCACTTGTCGTAAGACTTTGGATGGGTTA [3d2112]”, 0.792. “TATCCTTGTCGTAAGACACTTGGATGGTTGA [3d1101]” registered a fraction ligated of 0.0445. Same read-out and setting: as for ATCACTTGCTAAGACACTTTGGATGGGTTGA [3d141], the figure is 0.763; as for TACACTTGCGTAAGACACTTTGGAGGGTTGA [3d613], 0.044; as for “TATCACTTGTCTAAGACACTTGGATGGGTTA [3d1883]”, 0.701. On the same count and under the same terms, as for ATCCTTGTCGTAAGAACTTTGGATGGGTTGA [3d76], the figure is 0.719. The same measure, in the same setting: with TATACTGCGTAAGACACTTTGGATGGGTTGA [3d779] the figure was 0.779; with “TATCACTTGTCTAAACATTTGGATGGGTTGA [3d1838]”, 0.841; with TATACTTGTCGTAAGCACTTTGATGGGTTGA [3d897], 0.703. In turn, “TATCACTTGTCGTAAGCACTTGGATGGGTTGA [2d247]” yielded a fraction ligated of 0.756. “TATCACTTGTCGTAGACACTTTGATGGGTTG [3d2047]” returned a fraction ligated of 0.754.

TTCCTTGTCGTAAGACATTTGGATGGGTTGA [3d309] had a fraction ligated of 0.756. The sequence “TATCACTGTCGTAAGACACTTGGTGGGTTGA [3d1442]” yielded a fraction ligated of 0.692. Sequence “TATCACTTTCGTAAACACTTTGGAGGGTTGA [3d1525]” showed a fraction ligated of 0.0183. With TTCATTGTCTAAGACACTTTGGATGGGTTGA [3d321], the fraction ligated stood at 0.203. Regarding “TATCACTTGTCGTAAGACACTGATGGGTTGA [3d2232]”, the fraction ligated worked out at 0.0313. For TTCACTTGTCGTAAGACATTTGGATGGGTTA [3d482], the fraction ligated stood at 0.167.

Sequence ATCACTTGTCGTAAGACACTTTGGTGGGTTGA [2d20] came in with a fraction ligated of 0.0391. On the same count and under the same terms, as for “TATCACTTGTCGTAAGACACTGGATGGGTTA [3d2236]”, the figure is 0.751; as for TATCCTTTCGTAAGACACTTTGGATGGGTTA [3d982], 0.371.

These data come from the supplement of paper PMC6755084.
